Experimental data: the supplement of paper PMC11316812
± gives the standard deviation of the averaged measurements.

Key:
hTERT-HMEC = assay: percentage of EdU-negative (G0-arrested) nuclei per well, 72 h; higher = more G0 arrest; conditions: reference: sequence is the full UniProt precursor, the tested protein was the secreted form or ectodomain
MCF7 = assay: as above; conditions: reference: sequence is the full UniProt precursor, the tested protein was the secreted form or ectodomain
[1] = protein concentration 0.0225 µM
[2] = protein concentration 0.03125 µM
[3] = protein concentration 0.3125 µM
[4] = protein concentration 0.0165575 µM
[5] = protein concentration 0.165575 µM
[6] = protein concentration 0.01425 µM
[7] = protein concentration 0.1425 µM
[8] = protein concentration 0.0254286 µM
[9] = protein concentration 0.254286 µM
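Note: secreted proteins added to cultured cells, EdU pulse at the end, nuclei found by Hoechst imaging, EdU status from nuclear versus surrounding ring intensity ratio, PBS as neutral control.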

For “MGLGTLSPRMLVWLVASGIVFYGELWVCAGLDYDYTFDGNEEDKTETIDYKDPCKAAVFWGDIALDDEDLNIFQIDRTIDLTQNPFGNLGHTTGGLGDHAMSKKRGALYQLIDRIRRIGFGLEQNNTVKGKVPLQFSGQNEKNRVPRAATSRTERIWPGGVIPYVIGGNFTGSQRAMFKQAMRHWEKHTCVTFIERSDEESYIVFTYRPCGCCSYVGRRGNGPQAISIGKNCDKFGIVVHELGHVIGFWHEHTRPDRDNHVTIIRENIQPGQEYNFLKMEPGEVNSLGERYDFDSIMHYARNTFSRGMFLDTILPSRDDNGIRPAIGQRTRLSKGDIAQARKLYRCPACGETLQESNGNLSSPGFPNGYPSYTHCIWRVSVTPGEKIVLNFTTMDLYKSSLCWYDYIEVRDGYWRKSPLLGRFCGDKLPEVLTSTDSRMWIEFRSSSNWVGKGFAAVYEAICGGEIRKNEGQIQSPNYPDDYRPMKECVWKITVSESYHVGLTFQSFEIERHDNCAYDYLEVRDGTSENSPLIGRFCGYDKPEDIRSTSNTLWMKFVSDGTVNKAGFAANFFKEEDECAKPDRGGCEQRCLNTLGSYQCACEPGYELGPDRRSCEAACGGLLTKLNGTITTPGWPKEYPPNKNCVWQVVAPTQYRISVKFEFFELEGNEVCKYDYVEIWSGLSSESKLHGKFCGAEVPEVITSQFNNMRIEFKSDNTVSKKGFKAHFFSDKDECSKDNGGCQHECVNTMGSYMCQCRNGFVLHDNKHDCKEAECEQKIHSPSGLITSPNWPDKYPSRKECTWEISATPGHRIKLAFSEFEIEQHQECAYDHLEVFDGETEKSPILGRLCGNKIPDPLVATGNKMFVRFVSDASVQRKGFQATHSTECGGRLKAESKPRDLYSHAQFGDNNYPGQVDCEWLLVSERGSRLELSFQTFEVEEEADCGYDYVELFDGLDSTAVGLGRFCGSGPPEEIYSIGDSVLIHFHTDDTINKKGFHIRYKSIRYPDTTHTKK”, the “percentage of EdU-negative” value (hTERT-HMEC; protein concentration 0.014 µM) was 4.501 ± 0.026%, the “percentage of EdU-negative” value (hTERT-HMEC; protein concentration 0.14 µM) was 5.35 ± 1.3% and the “percentage of EdU-negative” value (MCF7; protein concentration 0.014 µM) was 24.6 ± 2.5%. The “percentage of EdU-negative” value (MCF7; protein concentration 0.14 µM) was 29.6 ± 1.9%.

“MGLHLRPYRVGLLPDGLLFLLLLLMLLADPALPAGRHPPVVLVPGDLGNQLEAKLDKPTVVHYLCSKKTESYFTIWLNLELLLPVIIDCWIDNIRLVYNKTSRATQFPDGVDVRVPGFGKTFSLEFLDPSKSSVGSYFHTMVESLVGWGYTRGEDVRGAPYDWRRAPNENGPYFLALREMIEEMYQLYGGPVVLVAHSMGNMYTLYFLQRQPQAWKDKYIRAFVSLGAPWGGVAKTLRVLASGDNNRIPVIGPLKIREQQRSAVSTSWLLPYNYTWSPEKVFVQTPTINYTLRDYRKFFQDIGFEDGWLMRQDTEGLVEATMPPGVQLHCLYGTGVPTPDSFYYESFPDRDPKICFGDGDGTVNLKSALQCQAWQSRQEHQVLLQELPGSEHIEMLANATTLAYLKRVLLGP [Q8NCC3]” was tested, and the “percentage of EdU-negative” value (hTERT-HMEC; [1]) was 4.6 ± 0.49%, the “percentage of EdU-negative” value (hTERT-HMEC; protein concentration 0.225 µM) was 6.68 ± 0.68% and the “percentage of EdU-negative” value (MCF7; [1]) was 25.3 ± 2.1%. The “percentage of EdU-negative” value (MCF7; protein concentration 0.225 µM) was 24.9 ± 0.58%.

With “MGLIWLLLLSLLEPGWPAAGPGARLRRDAGGRGGVYEHLGGAPRRRKLYCATKYHLQLHPSGRVNGSLENSAYSILEITAVEVGIVAIRGLFSGRYLAMNKRGRLYASEHYSAECEFVERIHELGYNTYASRLYRTVSSTPGARRQPSAERLWYVSVNGKGRPRRGFKTRRTQKSSLFLPRVLDHRDHEMVRQLQSGLPRPPGKGVQPRRRRQKQSPDNLEPSHVQASRLGSQLEASAH” the “percentage of EdU-negative” value (hTERT-HMEC; protein concentration 0.01 µM) was 5.1 ± 0.81%, the “percentage of EdU-negative” value (hTERT-HMEC; protein concentration 0.1 µM) was 6.93 ± 0.14% and the “percentage of EdU-negative” value (MCF7; protein concentration 0.01 µM) was 26.1 ± 0.46%. For the same sequence, the “percentage of EdU-negative” value (MCF7; protein concentration 0.1 µM) was 27.4 ± 0.42%.

“MGLLLPLALCILVLCCGAMSPPQLALNPSALLSRGCNDSDVLAVAGFALRDINKDRKDGYVLRLNRVNDAQEYRRGGLGSLFYLTLDVLETDCHVLRKKAWQDCGMRIFFESVYGQCKAIFYMNNPSRVLYLAAYNCTLRPVSKKKIYMTCPDCPSSIPTDSSNHQVLEAATESLAKYNNENTSKQYSLFKVTRASSQWVVGPSYFVEYLIKESPCTKSQASSCSLQSSDSVPVGLCKGSLTRTHWEKFVSVTCDFFESQAPATGSENSAVNQKPTNLPKVEESQQKNTPPTDSPSKAGPRGSVQYLPDLDDKNSQEKGPQEAFPVHLDLTTNPQGETLDISFLFLEPMEEKLVVLPFPKEKARTAECPGPAQNASPLVLPP [Q9UGM5]” was tested, and the “percentage of EdU-negative” value (hTERT-HMEC; [2]) was 5.24 ± 0.29%, the “percentage of EdU-negative” value (hTERT-HMEC; [3]) was 7.43 ± 0.49% and the “percentage of EdU-negative” value (MCF7; [2]) was 26.5 ± 2.8%. The “percentage of EdU-negative” value (MCF7; [3]) was 27.9 ± 0.97%.

With “MGLLSAPPCTQRITWKGLLLTASLLNFWNPPTTAQVTIEAQPTKVSEGKDVLLLVHNLPQNLTGYIWYKGQIRDLYHYITSYVVDGQIIIYGPAYSGRETIYSNASLLIQNVTQEDAGSYTLHIIMGGDENRGVTGHFTFTLYLETPKPSISSSKLNPREAMEAVSLTCDPETPDASYLWWMNGQSLPMSHRLQLSETNRTLFLLGVTKYTAGPYECEIRNPVSASRSDPFTLNLLPKLPKPYITINNLKPRENKDVLNFTCEPKSENYTYIWWLNGQSLPVSPRVKRPIENRILILPSVTRNETGPYQCEIRDQYGGIRSYPVTLNVLYGPDLPRIYPSFTYYRSGEVLYLSCSADSNPPAQYSWTINGKFQLSGQKLFIPQITTKHSGLYACSVRNSATGKESSKSMTVKVSGKRIPVSLAIGI [Q9UQ74]” the “percentage of EdU-negative” value (hTERT-HMEC; [4]) was 4.16 ± 0.38%, the “percentage of EdU-negative” value (hTERT-HMEC; [5]) was 6.44 ± 0.53% and the “percentage of EdU-negative” value (MCF7; [4]) was 26.7 ± 1%. For the same sequence, the “percentage of EdU-negative” value (MCF7; [5]) was 31.5 ± 1.5%.

With “MGLQACLLGLFALILSGKCSYSPEPDQRRTLPPGWVSLGRADPEEELSLTFALRQQNVERLSELVQAVSDPSSPQYGKYLTLENVADLVRPSPLTLHTVQKWLLAAGAQKCHSVITQDFLTCWLSIRQAELLLPGAEFHHYVGGPTETHVVRSPHPYQLPQALAPHVDFVGGLHRFPPTSSLRQRPEPQVTGTVGLHLGVTPSVIRKRYNLTSQDVGSGTSNNSQACAQFLEQYFHDSDLAQFMRLFGGNFAHQASVARVVGQQGRGRAGIEASLDVQYLMSAGANISTWVYSSPGRHEGQEPFLQWLMLLSNESALPHVHTVSYGDDEDSLSSAYIQRVNTELMKAAARGLTLLFASGDSGAGCWSVSGRHQFRPTFPASSPYVTTVGGTSFQEPFLITNEIVDYISGGGFSNVFPRPSYQEEAVTKFLSSSPHLPPSSYFNASGRAYPDVAALSDGYWVVSNRVPIPWVSGTSASTPVFGGILSLINEHRILSGRPPLGFLNPRLYQQHGAGLFDVTRGCHESCLDEEVEGQGFCSGPGWDPVTGWGTPNFPALLKTLLNP” the “percentage of EdU-negative” value (hTERT-HMEC; [1]) was 5.11 ± 0.24%, the “percentage of EdU-negative” value (hTERT-HMEC; protein concentration 0.225 µM) was 10.72 ± 0.011% and the “percentage of EdU-negative” value (MCF7; [1]) was 25.3 ± 1.4%. For the same sequence, the “percentage of EdU-negative” value (MCF7; protein concentration 0.225 µM) was 27.9 ± 4.2%.

With “MGLQTTKWPSHGAFFLKSWLIISLGLYSQVSKLLACPSVCRCDRNFVYCNERSLTSVPLGIPEGVTVLYLHNNQINNAGFPAELHNVQSVHTVYLYGNQLDEFPMNLPKNVRVLHLQENNIQTISRAALAQLLKLEELHLDDNSISTVGVEDGAFREAISLKLLFLSKNHLSSVPVGLPVDLQELRVDENRIAVISDMAFQNLTSLERLIVDGNLLTNKGIAEGTFSHLTKLKEFSIVRNSLSHPPPDLPGTHLIRLYLQDNQINHIPLTAFSNLRKLERLDISNNQLRMLTQGVFDNLSNLKQLTARNNPWFCDCSIKWVTEWLKYIPSSLNVRGFMCQGPEQVRGMAVRELNMNLLSCPTTTPGLPLFTPAPSTASPTTQPPTLSIPNPSRSYTPPTPTTSKLPTIPDWDGRERVTPPISERIQLSIHFVNDTSIQVSWLSLFTVMAYKLTWVKMGHSLVGGIVQERIVSGEKQHLSLVNLEPRSTYRICLVPLDAFNYRAVEDTICSEATTHASYLNNGSNTASSHEQTTSHSMGSPFLLAGLIGGAVIFVLVVLLSVFCWHMHKKGRYTSQKWKYNRGRRKDDYCEAGTKKDNSILEMTETSFQIVSLNNDQLLKGDFRLQPIYTPNGGINYTDCHIPNNMRYCNSSVPDLEHCHT” the “percentage of EdU-negative” value (hTERT-HMEC; [6]) was 6.49 ± 1.2%, the “percentage of EdU-negative” value (hTERT-HMEC; [7]) was 7.12 ± 0.37% and the “percentage of EdU-negative” value (MCF7; [6]) was 22.9 ± 1.9%. The “percentage of EdU-negative” value (MCF7; [7]) was 27 ± 0.45%.

“MGLSTVPDLLLPLVLLELLVGIYPSGVIGLVPHLGDREKRDSVCPQGKYIHPQNNSICCTKCHKGTYLYNDCPGPGQDTDCRECESGSFTASENHLRHCLSCSKCRKEMGQVEISSCTVDRDTVCGCRKNQYRHYWSENLFQCFNCSLCLNGTVHLSCQEKQNTVCTCHAGFFLRENECVSCSNCKKSLECTKLCLPQIENVKGTEDSGTTVLLPLVIFFGLCLLSLLFIGLMYRYQRWKSKLYSIVCGKSTPEKEGELEGTTTKPLAPNPSFSPTPGFTPTLGFSPVPSSTFTSSSTYTPGDCPNFAAPRREVAPPYQGADPILATALASDPIPNPLQKWEDSAHKPQSLDTDDPATLYAVVENVPPLRWKEFVRRLGLSDHEIDRLELQNGRCLREAQYSMLATWRRRTPRREATLELLGRVLRDMDLLGCLEDIEEALCGPAALPPAPSLLR” was tested, and the “percentage of EdU-negative” value (hTERT-HMEC; [2]) was 4.76 ± 0.43%, the “percentage of EdU-negative” value (hTERT-HMEC; [3]) was 5.34 ± 0.28% and the “percentage of EdU-negative” value (MCF7; [2]) was 24.9 ± 3.4%. The “percentage of EdU-negative” value (MCF7; [3]) was 25.5 ± 0.84%.

For “MGLTLLLLLLLGLEGQGIVGSLPEVLQAPVGSSILVQCHYRLQDVKAQKVWCRFLPEGCQPLVSSAVDRRAPAGRRTFLTDLGGGLLQVEMVTLQEEDAGEYGCMVDGARGPQILHRVSLNILPPEEEEETHKIGSLAENAFSDPAGSANPLEPSQDEKSIPLIWGAVLLVGLLVAAVVLFAVMAKRKQGNRLGVCGRFLSSRVSGMNPSSVVHHVSDSGPAAELPLDVPHIRLDSPPSFDNTTYTSLPLDSPSGKPSLPAPSSLPPLPPKVLVCSKPVTYATVIFPGGNKGGGTSCGPAQNPPNNQTPSS [Q86YW5]”, the “percentage of EdU-negative” value (hTERT-HMEC; [8]) was 5.07 ± 0.49%, the “percentage of EdU-negative” value (hTERT-HMEC; [9]) was 5.75 ± 0.65% and the “percentage of EdU-negative” value (MCF7; [8]) was 20.7 ± 3.4%. The “percentage of EdU-negative” value (MCF7; [9]) was 26 ± 4.5%.

For “MGLWGQSVPTASSARAGRYPGARTASGTRPWLLDPKILKFVVFIVAVLLPVRVDSATIPRQDEVPQQTVAPQQQRRSLKEEECPAGSHRSEYTGACNPCTEGVDYTIASNNLPSCLLCTVCKSGQTNKSSCTTTRDTVCQCEKGSFQDKNSPEMCRTCRTGCPRGMVKVSNCTPRSDIKCKNESAASSTGKTPAAEETVTTILGMLASPYHYLIIIVVLVIILAVVVVGFSCRKKFISYLKGICSGGGGGPERVHRVLFRRRSCPSRVPGAEDNARNETLSNRYLQPTQVSEQEIQGQELAELTGVTVELPEEPQRLLEQAEAEGCQRRRLLVPVNDADSADISTLLDASATLEEGHAKETIQDQLVGSEKLFYEEDEAGSATSCL [Q9UBN6]”, the “percentage of EdU-negative” value (hTERT-HMEC; [1]) was 4.16 ± 0.28%, the “percentage of EdU-negative” value (hTERT-HMEC; protein concentration 0.225 µM) was 4.86 ± 0.69% and the “percentage of EdU-negative” value (MCF7; [1]) was 24 ± 0.81%. For the same sequence, the “percentage of EdU-negative” value (MCF7; protein concentration 0.225 µM) was 24.3 ± 2%.
